Measurements: patent US20220041658A1 (PROTAGONIST THERAPEUTICS, published 2022)
Positions of bridges follow the written chain, without caps; N, C: chain ends. Non-standard residues stand in square brackets, D forms with d. Trp(7-Me) = Cc1cccc2c(C[C@H](N)C(=O)O)c[nH]c12; 2Nal = N[C@@H](Cc1ccc2ccccc2c1)C(=O)O; d2Nal = N[C@H](Cc1ccc2ccccc2c1)C(=O)O; AEF = NCCOc1ccc(C[C@H](N)C(=O)O)cc1; αMeF = C[C@](N)(Cc1ccccc1)C(=O)O; Cit = NC(=O)NCCC[C@H](N)C(=O)O; Pen = CC(C)(S)[C@H](N)C(=O)O; αMeK = C[C@](N)(CCCCN)C(=O)O; Dab = NCC[C@H](N)C(=O)O; Abu = CC[C@H](N)C(=O)O; Aib = CC(C)(N)C(=O)O; Sar = CNCC(=O)O

B1: Peptide of SEQ ID NO: 228 (peptide)
peptide: XNTXQXXXXKNX
modifications: Ac-[Pen]-NT-[W(6-Cl)]-Q-[Pen]-Phe[4-(2-aminoethoxy)]-[2-Nal]-[a-MeLys]-[Lys(Ac)]-N-[bA]-NH2; Pen-Pen disulfide
B2: Peptide of SEQ ID NO: 204 (peptide)
peptide: XQTXQCXXXENX
modifications: Ac-Abu-Q-T-[W(7-Me)]-Q-C-Phe[4-(2-aminoethoxy)]-[2-Nal]-[THP]-E-N-[bA]-NH2; Abu-Cys thioether
B3: Peptide of SEQ ID NO: 237 (peptide)
peptide: XQTXQXXXXKNX
modifications: Ac-[Pen]-Q-T-[W(7-Me)]-Q-[Pen]-Phe[4-(2-aminoethoxy)]-[2-Nal]-[a-MeLys]-[Lys(Ac)]-N-[bA]-NH2; Pen-Pen disulfide
B4: Peptide of SEQ ID NO: 319 (peptide)
peptide: XNTXXXXXXKNL
modifications: Ac-[Pen]-N-T-[W(7-Me)]-[Lys(trifluoropropionic)]-[Pen]-Phe[4-(2-aminoethoxy)]-[2-Nal]-[a-MeLys]-[Lys(Ac)]-N-[(D)Leu]-NH2; Pen-Pen disulfide
B5: Peptide of SEQ ID NO: 222 (peptide)
peptide: XNTXQXXXXKSX
modifications: Ac-[Pen]-NT-[W(7-Me)]-Q-[Pen]-Phe[4-(2-aminoethoxy)]-[2-Nal]-[a-MeLeu]-[Lys(Ac)]-[(D)Ser]-[bA]-NH2; Pen-Pen disulfide
B6: Peptide of SEQ ID NO: 318 (peptide)
peptide: XNTXXXXXXKNL
modifications: not fully specified; Ac-[Pen]-N-T-[W(7-Me)]-[Lys(benzyl)]-[Pen]-Phe[4-(2-aminoethoxy)]-[2-Nal]-[a-MeLys]-[Lys(Ac)]-N-[(D)Leu]-NH2; Pen-Pen disulfide
B7: Peptide of SEQ ID NO: 322 (peptide)
peptide: XNTXXXXXXKNL
modifications: Ac-[Pen]-N-T-[W(7-Me)]-[Lys(Aib)]-[Pen]-Phe[4-(2-aminoethoxy)]-[2-Nal]-[a-MeLys]-[Lys(Ac)]-N-[(D)Leu]-NH2; Pen-Pen disulfide
B8: Peptide of SEQ ID NO: 338 (peptide)
peptide: XNTXKXXXXKNL
modifications: Ac-[Pen]-[(D)Asn]-T-[W(7-Me)]-[Lys(Ac)]-[Pen]-Phe[4-(2-aminoethoxy)]-[2-Nal]-[a-MeLys]-[Lys(Ac)]-N-[(D)Leu]-NH2; Pen-Pen disulfide
B9: Peptide of SEQ ID NO: 231 (peptide)
peptide: XNTXQXXXXKNX
modifications: Ac-[Pen]-NT-[W(4-Me)]-Q-[Pen]-Phe[4-(2-aminoethoxy)]-[2-Nal]-[a-MeLys]-[Lys(Ac)]-N-[bA]-NH2; Pen-Pen disulfide
B10: Peptide of SEQ ID NO: 233 (peptide)
peptide: XNTXQXXXXKNX
modifications: Ac-[Pen]-NT-[W(2,5,7-tritBu)]-Q-[Pen]-Phe[4-(2-aminoethoxy)]-[2-Nal]-[a-MeLys]-[Lys(Ac)]-N-[bA]-NH2; Pen-Pen disulfide
B11: Peptide of SEQ ID NO: 220 (peptide)
peptide: XNTXQXXXXGPX
modifications: Ac-[Pen]-NT-[W(7-Me)]-Q-[Pen]-Phe[4-(2-aminoethoxy)]-[2-Nal]-[a-MeLeu]-G-[(D)Pro]-[bA]-NH2; Pen-Pen disulfide
B12: Peptide of SEQ ID NO: 229 (peptide)
peptide: XNTXQXXXXKNX
modifications: Ac-[Pen]-NT-[W(4-OMe)]-Q-[Pen]-Phe[4-(2-aminoethoxy)]-[2-Nal]-[a-MeLys]-[Lys(Ac)]-N-[bA]-NH2; Pen-Pen disulfide
B13: Peptide of SEQ ID NO: 351 (peptide)
peptide: XNTXKXXXXKNK
modifications: Ac-[Pen]-N-T-[W(2-Me)]-[Lys(Ac)]-[Pen]-Phe[4-(2-aminoethoxy)]-[2-Nal]-[a-MeLys]-[Lys(Ac)]-N-[(D)Lys]-NH2; Pen-Pen disulfide
B14: Peptide of SEQ ID NO: 219 (peptide)
peptide: XNTXQXXXXGPX
modifications: Ac-[Pen]-NT-[W(7-Me)]-Q-[Pen]-Phe[4-(2-aminoethoxy)]-[2-Nal]-[a-MeLeu]-G-P-[bA]-NH2; Pen-Pen disulfide
B15: Peptide of SEQ ID NO: 321 (peptide)
peptide: XNTXXXXXXKNL
modifications: Ac-[Pen]-N-T-[W(7-Me)]-[Lys(bAla)]-[Pen]-Phe[4-(2-aminoethoxy)]-[2-Nal]-[a-MeLys]-[Lys(Ac)]-N-[(D)Leu]-NH2; Pen-Pen disulfide
B16: Peptide of SEQ ID NO: 211 (peptide)
peptide: XNTXQXXXXKPX
modifications: Ac-[Pen]-NT-[W(7-Me)]-Q-[Pen]-Phe[4-(2-aminoethoxy)]-[2-Nal]-[a-MeLeu]-[Lys(Ac)]-P-[bA]-NH2; Pen-Pen disulfide

Molecular target: T1, interleukin-23 receptor (IL-23R) (human, UniProt Q5VWK5 24-629)
T1 sequence (looked up): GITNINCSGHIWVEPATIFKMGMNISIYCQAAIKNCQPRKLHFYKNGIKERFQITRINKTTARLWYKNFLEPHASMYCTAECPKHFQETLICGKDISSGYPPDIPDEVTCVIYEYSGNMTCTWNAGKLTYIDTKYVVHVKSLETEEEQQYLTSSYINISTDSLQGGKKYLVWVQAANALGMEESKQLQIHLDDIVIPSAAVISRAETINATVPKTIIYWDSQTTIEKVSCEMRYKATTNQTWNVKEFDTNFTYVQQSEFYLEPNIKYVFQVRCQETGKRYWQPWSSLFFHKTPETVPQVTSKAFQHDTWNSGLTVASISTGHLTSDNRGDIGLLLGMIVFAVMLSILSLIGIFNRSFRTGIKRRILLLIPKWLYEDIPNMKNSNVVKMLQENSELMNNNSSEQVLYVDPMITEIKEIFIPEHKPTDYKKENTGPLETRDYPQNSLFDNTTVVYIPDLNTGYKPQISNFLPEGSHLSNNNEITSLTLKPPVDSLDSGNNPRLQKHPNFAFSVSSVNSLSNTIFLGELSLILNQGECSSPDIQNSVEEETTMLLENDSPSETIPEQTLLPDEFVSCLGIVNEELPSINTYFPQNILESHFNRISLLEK
Test: cell-based or functional assay

| Binder | pStat3 HTRF IC50 [nM] |
| --- | --- |
| Ac-[dR][Abu]QT[Trp(7-Me)]K(Ac)C[AEF][2Nal][αMeK]K(Ac)N[dK][Sar]-NH2 (thioether 2-7 (inferred)) [Peptide of SEQ ID NO: 323] | 5.33 |
| Ac-[Pen]NT[Trp(7-Me)][Cit][Pen][AEF][2Nal][αMeK]K(Ac)N[Aib][d2Nal]-NH2 (disulfide 1-6 (inferred)) [Peptide of SEQ ID NO: 348] | 5.02 |
| Ac-[Pen]NT[Trp(7-Me)][Cit][Pen][AEF][2Nal][αMeK]K(Ac)N[Aib][dK]-NH2 (disulfide 1-6 (inferred)) [Peptide of SEQ ID NO: 344] | 0.724 |
| B1 | 25.7 |
| B2 | 1.75 |
| B3 | 3.39 |
| B4 | 0.714 |
| B5 | 5.02 |
| Ac-[Pen]K(Ac)T[Trp(7-Me)]K(Ac)[Pen][AEF][2Nal][αMeK]K(Ac)N[dL]-NH2 (disulfide 1-6 (inferred)) [Peptide of SEQ ID NO: 330] | 1.38 |
| Ac-[Pen]RT[Trp(7-Me)]K(Ac)[Pen][AEF][2Nal][αMeK]K(Ac)N[dL]-NH2 (disulfide 1-6 (inferred)) [Peptide of SEQ ID NO: 336] | 1.49 |
| Ac-[Pen]NT[Trp(7-Me)][Cit][Pen][AEF][2Nal][αMeK]K(Ac)N[Aib][dY]-NH2 (disulfide 1-6 (inferred)) [Peptide of SEQ ID NO: 347] | 0.637 |
| B6 | 1.9 |
| Ac-[Pen]NT[Trp(7-Me)][Cit][Pen][AEF][2Nal][αMeK]K(Ac)N[Aib]R-NH2 (disulfide 1-6 (inferred)) [Peptide of SEQ ID NO: 343] | 1.43 |
| B7 | 0.648 |
| Ac-[dR][Abu]QT[Trp(7-Me)]K(Ac)C[AEF][2Nal][αMeK]K(Ac)N-NH2 (thioether 2-7 (inferred)) [Peptide of SEQ ID NO: 326] | 18.4 |
| B8 | 41.8 |
| Ac-[Pen]AT[Trp(7-Me)]K(Ac)[Pen][AEF][2Nal][αMeK]K(Ac)N[dL]-NH2 (disulfide 1-6 (inferred)) [Peptide of SEQ ID NO: 328] | 0.78 |
| Ac-[dR][Abu]QT[Trp(7-Me)]K(Ac)C[AEF][2Nal][αMeK]K(Ac)N[αMeF]-NH2 (thioether 2-7 (inferred)) [Peptide of SEQ ID NO: 327] | 12.7 |

| Binder | pStat3 HTRF IC50 [nM] |
| --- | --- |
| Ac-[Pen]PT[Trp(7-Me)]K(Ac)[Pen][AEF][2Nal][αMeK]K(Ac)N[dL]-NH2 (disulfide 1-6 (inferred)) [Peptide of SEQ ID NO: 333] | 9.3 |
| B9 | 5.85 |
| B10 | > 1000 |
| B11 | 195 |
| Ac-[Pen]NT[Trp(7-Me)][Cit][Pen][AEF][2Nal][αMeK]K(Ac)N[Aib]A-NH2 (disulfide 1-6 (inferred)) [Peptide of SEQ ID NO: 342] | 0.664 |
| Ac-[Pen]NT[Trp(7-Me)][Cit][Pen][AEF][2Nal][αMeK]K(Ac)N[Aib][dR]-NH2 (disulfide 1-6 (inferred)) [Peptide of SEQ ID NO: 345] | 0.639 |
| Ac-[Pen]NT[Trp(7-Me)][Cit][Pen][AEF][2Nal][αMeK]K(Ac)N[Aib][dF]-NH2 (disulfide 1-6 (inferred)) [Peptide of SEQ ID NO: 346] | 0.784 |
| B12 | 23.1 |
| B13 | 11.3 |
| Ac-[Pen]NT[Trp(7-Me)][Cit][Pen][AEF][2Nal][αMeK]K(Ac)N[Aib]G-NH2 (disulfide 1-6 (inferred)) [Peptide of SEQ ID NO: 341] | 0.934 |
| B14 | 93.7 |
| Ac-[Pen][Cit]T[Trp(7-Me)]K(Ac)[Pen][AEF][2Nal][αMeK]K(Ac)N[dL]-NH2 (disulfide 1-6 (inferred)) [Peptide of SEQ ID NO: 331] | 0.834 |
| B15 | 1.04 |
| Ac-[Pen]LT[Trp(7-Me)]K(Ac)[Pen][AEF][2Nal][αMeK]K(Ac)N[dL]-NH2 (disulfide 1-6 (inferred)) [Peptide of SEQ ID NO: 332] | 1.06 |
| Ac-[Pen]GT[Trp(7-Me)]K(Ac)[Pen][AEF][2Nal][αMeK]K(Ac)N[dL]-NH2 (disulfide 1-6 (inferred)) [Peptide of SEQ ID NO: 329] | 0.77 |
| B16 | 178 |
| Ac-[Pen][Dab](Ac)T[Trp(7-Me)]K(Ac)[Pen][AEF][2Nal][αMeK]K(Ac)N[dL]-NH2 (disulfide 1-6 (inferred)) [Peptide of SEQ ID NO: 335] | 0.567 |
| Ac-[Pen]NT[Trp(7-Me)][Cit][Pen][AEF][2Nal][αMeK]K(Ac)N[Sar]-NH2 (disulfide 1-6 (inferred)) [Peptide of SEQ ID NO: 339] | 6.3 |
